The values that follow come from patent publication US20160130303.

The target of series [1] is T1, PGS-1, YRRAAVPPSPSLSRHSSPSQS(p)EDEEE.
T1 chain: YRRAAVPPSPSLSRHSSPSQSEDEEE

For the next series, the target named is T2, p9CREB, ILSRRPS(p)YR.
T2 chain: ILSRRPSYR

Series [2] addresses T3, pIRS-1, RREGGMSRPAS(p)VDG.
T3 chain: RREGGMSRPASVDG

In a further series the target is T4, L803-mts (not fully specified).
T4 chain: GKEAPPAPPQSP

Residue numbers refer to the chain shown, from its start. Names may count otherwise.

B1: GSK-3β F93A mutant (protein)
chain: MSGRPRTTSFAESCKPVQQPSAFGSMKVSRDKDGSKVTTVVATPGQGPDRPQEVSYTDTKVIGNGSFGVVYQAKLCDSGELVAIKKVLQDKRAKNRELQIMRKLDHCNIVRLRYFFYSSGEKKDEVYLNLVLDYVPETVYRVARHYSRAKQTLPVIYVKLYMYQLFRSLAYIHSFGICHRDIKPQNLLLDPDTAVLKLCDFGSAKQLVRGEPNVSYICSRYYRAPELIFGATDYTSSIDVWSAGCVLAELLLGQPIFPGDSGVDQLVEIIKVLGTPTREQIREMNPNYTEFKFPQIKAHPWTKDSSGTGHFTSGVRVFRPRTPPEAIALCSRLLEYTPTARLTPLEACAHSFFDELRDPNVKLPNGRDTPALFNFTTQELSSNPPLATILIPPHARIQAAASTPTNATAASDANTGDRGQTNNAASASASNST
In the case of B1, the Substrate phosphorylation (% of WTGSK-3β) (% of WTGSK-3β) in series [1] stood at 13; with p9CREB, ILSRRPS(p)YR, 46; in series [2], 42.

B2: wild-type (WT) GSK-3β (protein)
chain: B1 chain with A93F
Take B2: the “in vitro kinase assays using pIRS-1, p9CREB, and pGS-1 substrate in the presence or absence of L803-mts (100 µM)” value with L803-mts is “L803-mts (SEQ ID NO:5) competes with various substrates”.

B3: GSK-3β R92A mutant (protein)
chain: B1 chain with R92A, A93F
Consider B3, for which the Substrate phosphorylation (% of WTGSK-3β) (% of WTGSK-3β) in series [1] turned out to be 41; in the series with p9CREB, ILSRRPS(p)YR, 49; in series [2], 60.

B4: GSK-3β D90A mutant (protein)
chain: B1 chain with D90A, A93F
As to B4, the Substrate phosphorylation (% of WTGSK-3β) (% of WTGSK-3β) in series [1] was found to be 83; with p9CREB, ILSRRPS(p)YR it was 92; in series [2], 88.

B5: GSK-3β K91A mutant (protein)
chain: B1 chain with K91A, A93F
On to B5, for which the Substrate phosphorylation (% of WTGSK-3β) (% of WTGSK-3β) in series [1] was found to be 119; with p9CREB, ILSRRPS(p)YR it was 161; in series [2], 140.

B6: GSK-3β K94A mutant (protein)
chain: B1 chain with A93F, K94A
For B6, the Substrate phosphorylation (% of WTGSK-3β) (% of WTGSK-3β) in series [1] stood at 19; with p9CREB, ILSRRPS(p)YR it was 71; in series [2] it was 52.
